Test results reported in article PMC12363175.

Target: CX1 S ectodomain with stabilizing mutations
Assay: AUC

peptidase domain (PD) of hACE2, sequence (Q9BYF1 19-615): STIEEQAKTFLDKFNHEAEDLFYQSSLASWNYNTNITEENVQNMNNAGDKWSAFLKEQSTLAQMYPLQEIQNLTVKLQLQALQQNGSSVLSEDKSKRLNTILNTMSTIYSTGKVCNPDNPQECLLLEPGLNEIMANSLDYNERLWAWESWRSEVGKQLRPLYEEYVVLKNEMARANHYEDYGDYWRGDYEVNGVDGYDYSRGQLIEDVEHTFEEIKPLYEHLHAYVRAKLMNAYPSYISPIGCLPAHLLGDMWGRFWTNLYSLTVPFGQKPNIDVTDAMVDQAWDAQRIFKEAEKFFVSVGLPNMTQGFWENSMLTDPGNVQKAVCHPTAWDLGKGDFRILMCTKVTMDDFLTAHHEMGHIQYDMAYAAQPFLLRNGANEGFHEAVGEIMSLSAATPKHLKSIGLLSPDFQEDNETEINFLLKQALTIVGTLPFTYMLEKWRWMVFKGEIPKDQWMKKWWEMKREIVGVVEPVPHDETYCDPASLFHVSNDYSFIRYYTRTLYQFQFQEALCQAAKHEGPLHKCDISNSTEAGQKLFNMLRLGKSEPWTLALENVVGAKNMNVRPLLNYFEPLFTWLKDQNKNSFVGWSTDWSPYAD

Question: How did the stoichiometry N (hACE2 molecules per S trimer) turn out when “peptidase domain (PD) of hACE2 (from UniProt Q9BYF1 19-615) (domain or fragment)” was run?
Answer: 2
